# Laboratory results taken from US20260274980A1 (BIOARCTIC, published 2026).
# Where a chain is given by its changes, count along the chain named.
# B1: 2A-3 #8 (bispecific antibody, human IgG1, kappa)
# heavy: not shown
# chain: DIVMTQAPLSLPVSLGDQASISCRSSQSIVHSNGNTYLEWYLQKPGQSPKLLIYKVSNRFSGVPDRFSGSGSGTDFTLKISRVEAEDLGIYYCFQGSHVPPTFGGGTKLEIKRTVAAPSVFIFPPSDEQLKSGTASVVCLLNNFYPREAKVQWKVDNALQSGNSQESVTEQDSKDSTYSLSSTLTLSKADYEKHKVYACEVTHQGLSSPVTKSFNRGECGGGGSDIQMTQSPSSVSASVGDRVTITCKSSQSLLYSTNQKNYLAWYQQKPGKAPKLLIYWASTRESGVPSRFSGSGSGTDFTLTISSLQPEDFATYYCQQYFIYPRTFGQGTKVEIKGGGGSGGGGSGGGGSEVQLVQSGAEVKKPGSSVKVSCKASGYIFTDYNMDWVRQAPGQGLEWIGDINPDADTTSYNEKFKGRATLTVDKSTSTAYMELSSLRSEDTAVYYCARGGYSGSSYYHPMDYWGQGTLVTVSSGGGGSGGGGSGGGGSGGGGSDIVMTQAPLSLPVSLGDQASISCRSSQSIVHSNGNTYLEWYLQKPGQSPKLLIYKVSNRFSGVPDRFSGSGSGTDFTLKISRVEAEDLGIYYCFQGSHVPPTFGGGTKLEIKRTVAAPSVFIFPPSDEQLKSGTASVVCLLNNFYPREAKVQWKVDNALQSGNSQESVTEQDSKDSTYSLSSTLTLSKADYEKHKVYACEVTHQGLSSPVTKSFNRGEC
# notes: also called Gen 2A construct #8; VL first
# B2: h26D3-Fab (Fab, V domains shown)
# VH: EVQLVQSGAEVKKPGSSVKVSCKASGYIFTDYNMDWVRQAPGQGLEWIGDINPDYDTTSYNEKFKGRATLTVDKSTSTAYMELSSLRSEDTAVYYCARGGYSGSSYYHPMDYWGQGTLVTVSS
# VL: DIQMTQSPSSVSASVGDRVTITCKSSQSLLYSTNQKNYLAWYQQKPGKAPKLLIYWASTRESGVPSRFSGSGSGTDFTLTISSLQPEDFATYYCQQYFIYPRTFGQGTKVEIK
# notes: His-tagged Fab from ExpiCHO; also called humanized 26D3 Fab
# B3: bispecific binding molecule (format of WO2022/258841) comprising h26D3 LC5 scFv (bispecific antibody, V domains shown)
# VH: B2 VH
# VL: B2 VL with Y97A
# B4: bispecific binding molecule (format of WO2022/258841) comprising h26D3 HC6 scFv (bispecific antibody, V domains shown)
# VH: B2 VH with Y55A
# VL: B2 VL
# B5: bispecific binding molecule (format of WO2022/258841) comprising h26D3 LC1 scFv (bispecific antibody, V domains shown)
# VH: B2 VH
# VL: B2 VL with Y31A
# B6: mAb158-Gen2D-h26D3 VH first (bispecific antibody, human IgG1, kappa)
# heavy 1: not shown
# heavy 2: not shown
# light: DIVMTQAPLSLPVSLGDQASISCRSSQSIVHSNGNTYLEWYLQKPGQSPKLLIYKVSNRFSGVPDRFSGSGSGTDFTLKISRVEAEDLGIYYCFQGSHVPPTFGGGTKLEIKRTVAAPSVFIFPPSDEQLKSGTASVVCLLNNFYPREAKVQWKVDNALQSGNSQESVTEQDSKDSTYSLSSTLTLSKADYEKHKVYACEVTHQGLSSPVTKSFNRGEC
# notes: Knob-into-hole antibody; also called Gen 2D construct, VH first
# B7: mAb158-Gen2D-h26D3 VL first (bispecific antibody, human IgG1, kappa)
# heavy 1: not shown
# heavy 2: not shown
# light: B6 light
# notes: Knob-into-hole antibody; also called Gen 2D construct, VL first
# Assays:
# [1] = target: T1, human transferrin receptor 1 (hTfR1) on cell surfaces (human, UniProt P02786 1-760); assay: flow cytometry, Ramos cells
# T1 construct: Endogenous receptor on hCMEC/D3, THP-1, K562 and Ramos cells; also called CD71; endogenous hTfR1
# Description: Binding to hTfR1 on cells was measured on the immortalized human B lymphocyte cell line Ramos (Sigma, cat: 85030802). This cell line is known for expressing high levels of hTfR1 on the cell surface. Fcγ receptors were blocked using Fc receptor blocker (Innovex biosciences, #NB309-4X-40) for 30 min at 4° C., after which the cells were washed in PBS. The cells were seeded in a 96 well V bottom plate (#249570, Thermo Scientific Nunc), and serially diluted Gen 2A constructs were added and the plate was incubated at 4° C. overnight. The cells were washed with PBS with 1% BSA and then fixed with freshly prepared 4% formaldehyde (Thermo Scientific Pierce, #28906) diluted in PBS for 15 min at room temperature. The cells were washed with PBS containing 1% BSA, and then stained. […] Staining was carried out for 30 min at 4° C. After incubation with the detection reagent, cells were washed with PBS containing 1% BSA. The cells were finally resuspended in 200 μl PBS with 1% BSA and acquired using a BD FACSLyric flow cytometer system (BD Biosciences). Samples were analyzed using flowJo software (BD Biosciences).
# [2] = target: T2, cynomolgus TfR1 (recombinant, construct not stated) (cynomolgus, UniProt H9EXL1 90-760 (rhesus entry)); assay: indirect ELISA of Fabs as for hTfR1, on cTfR1 (coating construct not stated), A450 [upper right panel cTfR1]
# T2 construct: also called cTfR1; cynoTfR
# [3] = target: T3, truncated hTfR1 of SEQ ID NO:86 (human, UniProt P02786 122-760); assay: SPR, hTfR1 amine-coupled, scFv in bispecific format injected
# T3 construct: Given only as 'truncated hTfR1'; amine-coupled to a CM5 chip for SPR; also called human TfR1
# [4] = target: T3, truncated hTfR1 of SEQ ID NO:86; assay: SPR (Biacore 8K), single-cycle kinetics on immobilised hTfR1 (SEQ ID NO:86), as in Example 12 [column VH first, row Human TfR1]
# [5] = target: T4, truncated cTfR1 of SEQ ID NO:87 (cynomolgus, UniProt Q5RDH6 122-760 (Pongo abelii entry), limits assumed); assay: SPR (Biacore 8K), single-cycle kinetics on immobilised cTfR1 (SEQ ID NO:87), as in Example 12 [column VH first, row Cynomolgus TfR1]
# T4 construct: Printed only as 'truncated cTfR1'; amine-coupled to a CM5 chip for SPR; also called cynomolgus TfR1
# T4 chain: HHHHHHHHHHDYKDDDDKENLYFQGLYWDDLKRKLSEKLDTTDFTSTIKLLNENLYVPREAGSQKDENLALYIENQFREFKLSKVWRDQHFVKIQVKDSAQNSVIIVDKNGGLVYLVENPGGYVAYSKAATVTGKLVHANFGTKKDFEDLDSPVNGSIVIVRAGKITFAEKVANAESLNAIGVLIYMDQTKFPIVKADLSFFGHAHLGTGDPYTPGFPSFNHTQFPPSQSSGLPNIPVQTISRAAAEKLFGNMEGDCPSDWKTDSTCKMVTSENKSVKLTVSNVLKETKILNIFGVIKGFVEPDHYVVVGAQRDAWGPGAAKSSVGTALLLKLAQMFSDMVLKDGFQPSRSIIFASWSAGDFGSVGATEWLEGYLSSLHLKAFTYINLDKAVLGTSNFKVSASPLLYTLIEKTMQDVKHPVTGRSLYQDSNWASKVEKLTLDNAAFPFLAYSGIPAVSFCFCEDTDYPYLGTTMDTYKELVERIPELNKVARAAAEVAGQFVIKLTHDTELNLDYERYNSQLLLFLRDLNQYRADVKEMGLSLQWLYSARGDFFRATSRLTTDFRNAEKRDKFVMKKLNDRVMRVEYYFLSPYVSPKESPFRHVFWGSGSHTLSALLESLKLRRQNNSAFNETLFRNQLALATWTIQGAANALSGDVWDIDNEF
# [6] = target: T4, truncated cTfR1 of SEQ ID NO:87; assay: SPR (Biacore 8K), single-cycle kinetics on immobilised cTfR1 (SEQ ID NO:87), as in Example 12 [column VL first, row Cynomolgus TfR1]
# [7] = target: T1, human transferrin receptor 1 (hTfR1) on …; assay: flow cytometry on K562 cells (hTfR1 on the surface), Fc receptors blocked, overnight at 4 °C, detection with anti-human IgG-Alexa Fluor 488
# Description: Fcγ receptors were blocked using Fc receptor blocker (Innovex biosciences, #NB309-4X-40) for 30 min at 4° C., after which the cells were washed in PBS. […] The plate was incubated at 4° C. overnight. […] Staining was carried out for 30 min at 4° C. […] The cells were finally resuspended in 200 μl PBS with 1% BSA and acquired using a BD FACSLyric flow cytometer system (BD Biosciences). Samples were analyzed using flowJo software (BD Biosciences).
binder,measurement,setting,value
B1,binding result,[1],binds
B2,EC50 (read off the curve),[2],~1 nM
B3,Kd,[3],400 to 500 nM
B4,Kd,[3],100 to 200 nM
B5,Kd,[3],~40 nM
B6,binding result,[4],binds
same,binding result,[5],binds
B7,binding result,[6],binds
same,EC50 (read off the curve),[7],~30 nM
